For assay [1], the target named is GST-INI1 (UniProt Q12824). As to the kind of experiment: pull-down; 5 ug GST-INI1 on glutathione sepharose 4B beads incubated 1 hour at 4°C with clarified 293 T whole cell lysates normalized for YFP-IN levels; Western blot, densitometry, binding relative to YFP-WT. On the technique in general: Immunoblotting shows a protein as a band on a membrane.
Assay [2] concerns the target GST-INI1 (UniProt Q12824). As to the kind of experiment: pull-down; in vitro binding of His6-IN with GST-INI1; data not shown.
Assay [3] deals with GST-SAP18 (UniProt O00422). As to the kind of experiment: GST pull-down, Western blot quantitation. Conditions: 5μg of GST-tagged proteins were used for each pull-down reaction; parent: est. 1.0; read off a plot.
GST-SAP18, sequence (O00422 whole entry): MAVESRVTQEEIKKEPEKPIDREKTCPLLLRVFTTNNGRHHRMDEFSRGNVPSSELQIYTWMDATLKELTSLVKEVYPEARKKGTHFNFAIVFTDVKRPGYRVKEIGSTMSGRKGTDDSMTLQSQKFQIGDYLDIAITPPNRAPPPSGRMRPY
For assay [4], the target named is GST-SAP18 (UniProt O00422). Kind of assay: pull-down; 5 ug GST-tagged proteins on glutathione sepharose 4B beads incubated 1 hour at 4°C with normalized clarified bacterial lysates of 6His-IN in 20 mM HEPES-KOH pH 8.0, 5 mM DTT, 0.1% IGEPAL; washes with 200 mM NaCl, 0.5% IGEPAL; Western blot, densitometry relative to WT.
The next assay concerns the target GST-RT (HIV-1 (NL4-3)). The description is as above.

GST-INI1, sequence (Q12824 whole entry): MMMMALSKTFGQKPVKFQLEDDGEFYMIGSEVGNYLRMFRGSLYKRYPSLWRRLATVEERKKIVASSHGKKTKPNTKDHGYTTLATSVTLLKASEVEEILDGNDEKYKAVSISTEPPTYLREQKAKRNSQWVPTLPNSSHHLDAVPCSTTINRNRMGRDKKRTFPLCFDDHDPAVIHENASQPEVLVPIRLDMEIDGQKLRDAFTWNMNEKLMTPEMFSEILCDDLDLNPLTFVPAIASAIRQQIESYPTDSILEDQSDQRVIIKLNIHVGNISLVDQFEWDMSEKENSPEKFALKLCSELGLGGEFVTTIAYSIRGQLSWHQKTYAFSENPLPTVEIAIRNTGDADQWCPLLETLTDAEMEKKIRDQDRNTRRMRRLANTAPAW

Take YFP-IN H12Y (natural protein): the % binding to INI1 relative to wild type in the assay with GST-INI1 [1] was found to be 20.6%.
As to His6-tagged IN K111E (natural protein), in the assay with GST-INI1 [2], the % binding compared to His6-WT was determined as 60%.
For the substance His6-tagged WT IN K71R, the ratio to parent in the assay with GST-SAP18 [3] came out at 1.1.
In turn, YFP-IN D202G (natural protein) yielded a % binding to INI1 relative to wild type with GST-INI1 [1] of 32%.
As to His6-tagged WT IN D202G, in the assay with GST-SAP18 [3], the ratio to parent turned out to be 0.84.
In the assay with GST-SAP18 [4], His6-tagged IN Q137R (natural protein) registered a fold decrease in binding relative to WT of 4 fold. Besides, the % RT binding compared to WT in the assay with GST-RT (HIV-1 (NL4-3)) worked out at 45%.
In the assay with GST-INI1 [1], YFP-IN K71R (natural protein) displayed a % binding to INI1 relative to wild type of 46%.
In the assay with GST-RT (HIV-1 (NL4-3)), His6-tagged IN D202G (natural protein) had a % RT binding compared to WT of 80%.
In the assay with GST-INI1 [1], YFP-IN Q137R (natural protein) gave a % binding to INI1 relative to wild type of 10%.
On to His6-tagged WT IN S147G, for which the ratio to parent with GST-SAP18 [3] worked out at 1.
Substance YFP-IN S147G (natural protein) registered a % binding to INI1 relative to wild type with GST-INI1 [1] of 77%.
The same measure, in the same setting: the value for YFP-WT IN (natural protein) was 100%.
His6-tagged WT IN K111E: in the assay with GST-SAP18 [3], the ratio to parent came out at 1.3.
